Measurements taken from PMC8546600, “Chaperone Spy Protects Outer Membrane Proteins from Folding Stress via Dynamic Complex Formation” (mBio, 2021).
Substitutions are numbered along the chain they refer to. Numbers in names are those of the source.

Key:
Conditions in all cases: both partners purified
untagged OmpX = target: T1, untagged OmpX (Escherichia coli, UniProt P0A917 24-171); test: NMR spectroscopy of assembled chaperone-OMP complexes; excess urea-denatured OMP added dropwise to the chaperone, supernatant concentrated; 2D [15N,1H]-TROSY or HSQC with one partner [U-2H,15N]-labelled; 25 mM MES, 50 mM NaCl, pH 6.5; 315 K (tOmpA-Spy also at 42, 26 and 15 C)
T1 construct: outer membrane protein OmpX of Escherichia coli; [U-2H,15N]-labelled in the TROSY experiments, unlabelled in the HSQC experiment with labelled Spy; source: E. coli, from pET28b(+)-ompX, purified from the insoluble pellet in 8 M urea (ion exchange)
T1 sequence (looked up): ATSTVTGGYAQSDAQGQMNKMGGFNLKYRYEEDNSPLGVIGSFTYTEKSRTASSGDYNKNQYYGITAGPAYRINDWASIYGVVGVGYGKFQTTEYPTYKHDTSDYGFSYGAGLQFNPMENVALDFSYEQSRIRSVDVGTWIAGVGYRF

His-LamB = target: T2, His-LamB (Escherichia coli, UniProt P02943 26-446); test: other fluorescence titration; intrinsic tryptophan fluorescence of the OMP (0.4 uM) titrated with increasing Spy or Skp; 40 mM HEPES, 150 mM NaCl, 0.24 M urea, pH 7.5; 25 C; excitation 295 nm, emission 305-400 nm
T2 construct: Unfolded: diluted from 8 M urea to 0.24 M urea for the assay; source: E. coli, from pET28b(+)-His-lamB, purified, kept in 8 M urea; not shown: 6xHis, N-terminal, kept

His-OmpC = target: T3, His-OmpC (Escherichia coli, UniProt P06996 22-367); test: as above
T3 construct: Unfolded: diluted from 8 M urea to 0.24 M urea for the assay; source: E. coli, from pET28b(+)-His-ompC, purified, kept in 8 M urea; not shown: 6xHis, N-terminal, kept
T3 sequence (looked up): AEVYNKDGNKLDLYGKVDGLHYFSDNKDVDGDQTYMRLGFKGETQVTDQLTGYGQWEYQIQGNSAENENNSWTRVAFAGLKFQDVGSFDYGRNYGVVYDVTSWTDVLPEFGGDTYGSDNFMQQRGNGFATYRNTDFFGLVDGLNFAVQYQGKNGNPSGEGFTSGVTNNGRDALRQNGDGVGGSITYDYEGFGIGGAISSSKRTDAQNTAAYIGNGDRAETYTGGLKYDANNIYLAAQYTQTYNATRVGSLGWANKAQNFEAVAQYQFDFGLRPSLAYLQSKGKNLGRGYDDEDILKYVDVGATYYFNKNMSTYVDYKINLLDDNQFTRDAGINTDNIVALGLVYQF

His-OmpA = target: T4, His-OmpA (Escherichia coli, UniProt P0A910 22-346); test: as above
T4 construct: Unfolded: diluted from 8 M urea to 0.24 M urea for the assay; source: E. coli, from pET28b(+)-His-ompA, purified, kept in 8 M urea; not shown: 6xHis, N-terminal, kept
T4 sequence (looked up): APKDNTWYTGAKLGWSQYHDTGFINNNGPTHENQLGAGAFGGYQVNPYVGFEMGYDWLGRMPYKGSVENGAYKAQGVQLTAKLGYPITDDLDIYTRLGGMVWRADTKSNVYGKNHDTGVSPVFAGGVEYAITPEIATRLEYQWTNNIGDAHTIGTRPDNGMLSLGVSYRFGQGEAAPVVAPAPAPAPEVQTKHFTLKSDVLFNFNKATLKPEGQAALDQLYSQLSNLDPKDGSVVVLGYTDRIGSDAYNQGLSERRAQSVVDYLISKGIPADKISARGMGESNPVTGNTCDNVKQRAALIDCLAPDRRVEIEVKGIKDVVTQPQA

His-OmpX = target: T5, His-OmpX (Escherichia coli, UniProt P0A917 24-171); test: as above
T5 construct: Unfolded: diluted from 8 M urea to 0.24 M urea for the assay; source: E. coli, from pET28b(+)-His-ompX, purified, kept in 8 M urea; not shown: 6xHis, N-terminal, kept
T5 sequence (looked up): T1 sequence (looked up)

Measured: binding result

T2 sequence (P02943 26-446): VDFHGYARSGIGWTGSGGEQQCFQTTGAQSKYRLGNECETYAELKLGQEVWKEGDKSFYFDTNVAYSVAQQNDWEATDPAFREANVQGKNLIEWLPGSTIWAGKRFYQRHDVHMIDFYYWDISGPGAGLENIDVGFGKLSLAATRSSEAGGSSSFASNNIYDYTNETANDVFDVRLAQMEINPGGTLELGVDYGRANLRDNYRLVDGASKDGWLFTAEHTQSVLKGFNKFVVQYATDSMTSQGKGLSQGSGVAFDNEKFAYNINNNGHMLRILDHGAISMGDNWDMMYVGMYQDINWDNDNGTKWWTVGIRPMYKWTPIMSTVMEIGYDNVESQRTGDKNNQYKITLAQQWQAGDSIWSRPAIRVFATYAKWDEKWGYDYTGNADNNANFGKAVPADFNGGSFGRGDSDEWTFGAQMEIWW

B1: periplasmic chaperone Spy (natural protein, Escherichia coli, UniProt P77754 24-161, looked up)
chain: ADTTTAAPADAKPMMHHKGKFGPHQDMMFKDLNLTDAQKQQIREIMKGQRDQMKRPPLEERRAMHDIIASDTFDKVKAEAQIAKMEEQRKANMLAHMETQNKIYNILTPEQKKQFNANFEKRLTERPAAKGKMPATAE
notes: Spy, periplasmic chaperone of Escherichia coli; [U-2H,15N]-labelled in the HSQC experiment with unlabelled OmpX, unlabelled elsewhere; also called wild-type Spy; WT Spy; source: E. coli, from pET28b(+)-HisSUMO-spy, purified (6xHis-SUMO tag removed, cation exchange)
binds: untagged OmpX | His-LamB | His-OmpC | His-OmpA | His-OmpX

B2: Spy^Q100L (natural protein, Escherichia coli, UniProt P77754 24-161, looked up)
chain: B1 chain with Q100L
notes: Spy of Escherichia coli with Q100L; also called Q100L variant; source: E. coli, from pET28b(+)-HisSUMO-spy-Q100L, purified
binds: untagged OmpX

B3: seventeen-kilodalton protein (Skp) (natural protein, Escherichia coli, UniProt P0AEU7 21-161, looked up)
chain: ADKIAIVNMGSLFQQVAQKTGVSNTLENEFKGRASELQRMETDLQAKMKKLQSMKAGSDRTKLEKDVMAQRQTFAQKAQAFEQDRARRSNEERGKLVTRIQTAVKSVANSQDIDLVVDANAVAYNSSDVKDITADVLKQVK
notes: Skp, periplasmic chaperone of Escherichia coli; source: E. coli, from pET28b(+)-HisSUMO-skp, purified (6xHis-SUMO tag removed, cation exchange)
binds: His-LamB | His-OmpC | His-OmpA | His-OmpX
